According to patent US20090117107A1:

Biological target: rRANKL (Cambrex) (UniProt O14788)
Assay: cell-based or functional assay

Sequence of UniProt O14788 (O14788 140-317 limits assumed): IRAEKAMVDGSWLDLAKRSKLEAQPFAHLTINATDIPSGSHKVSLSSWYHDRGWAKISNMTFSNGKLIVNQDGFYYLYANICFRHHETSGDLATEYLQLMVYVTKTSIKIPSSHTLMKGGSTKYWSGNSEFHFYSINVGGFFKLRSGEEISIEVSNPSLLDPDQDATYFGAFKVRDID

Recombinant OPG (R&D cat185-05-025) (from UniProt O00300 22-401) (receptor)
rRANKL-induced OC differentiation in OCP-RASF coculture, αvβ3 integrin cELISA luminescent readout (ng/mL rRANKL inhibited by 22 ng/mL rOPG): < 7.5 | rRANKL-induced OC differentiation in OCP-RASF coculture, αvβ3 integrin cELISA luminescent readout (ng/mL rRANKL inhibited by 66 ng/mL rOPG): < 15
